Measured values from patent US20170307631A1, “METHODS, SYSTEMS AND PRODUCTS FOR PREDICTING RESPONSE OF TUMOR CELLS TO A THERAPEUTIC AGENT AND TREATING A PATIENT ACCORDING TO THE PREDICTED RESPONSE” (Merrimack Pharmaceuticals, Inc., priority 2008, published 2017).
One block for each molecule: values may come before it.

Assays:
pErbB3 in NCI-ADRr cells = test: ErbB3 phosphorylation dose response curves for ErbB ligands (ELISA); format: cell-based, human
Description: (§1) For stimulation of the cells, the cells are seeded in […] at 35,000 cells per well in 96 well tissue culture plates and incubated overnight in a humidified atmosphere of 5% CO2, 95% air and 37 degrees Celsius. Cells are then switched to serum free media: RPMI-1640 media (Gibco) supplemented with, 2 mM L-glutamine (Gibco) and units/mL Pen-Strep (Gibco). Starved cells are incubated in a humidified atmosphere of 5% CO2, 95% air and 37 degrees Celsius for 20-24 hours prior to stimulation.
(§2) Levels of protein phosphorylation in the stimulated cells are measured by ELISA. Capture antibodies against ErbB1 (R&D Systems, AF231), ErbB2 (R&D Systems, MAB1129), ErbB3 (R&D Systems, MAB3481) and AKT (Upstate, 05-591MG) are incubated in 384 well black flat-bottom polystyrene high-binding plates (Corning, Catalog #3708) overnight at room temperature. The ELISA plates are blocked with 2% bovine serum albumin (BSA) and phosphate buffered saline (PBS) for one hour then incubated with lysates diluted in 2% BSA, 0.1% Tween-20 and PBS for two hours at room temp. In between each incubation, the plates are washed three times with 0.05% Tween-20 in PBS. ELISAs for measuring phospho-ErbB1, -ErbB2 and -ErbB3 are incubated with phospho-tyrosine horseradish peroxidase (HRP) linked monoclonal antibody (R&D Systems, HAM1676) for two hours. ELISAs measuring phospho-AKT are incubated with primary serine 473 specific anti-phospho AKT mouse monoclonal antibody (Cell Signaling Technologies, Catalog #5102) for 2 hours, then incubated with Streptavidin-HRP (R&D Systems, Catalog # DY998,) for 30 minutes. All ELISAs are visualized with SuperSignal ELISA Pico Chemiluminescent Substrate (Pierce, Catalog #37069) and luminescent signal is measured using a luminometer.

ErbB3 (E3) = ErbB3 (E3) (Homo sapiens, UniProt P21860); test: ErbB computational model: HRG ligand binding rate parameters
Excerpt: The ErbB receptor signaling network model consists of three receptors (ErbB1, ErbB2, ErbB3), a receptor phosphatase, phosphatidylinositol 3-kinase (PI3K, which binds the receptors) and components of the PI3K-AKT cascade (phosphatidylinositol bisphosphate, PIP2, phosphoinositide-dependent protein kinase, PDK1, PTEN deleted from chromosome 10, PTEN, serine, threonine protein kinase also known as protein kinase B, AKT, Protein phosphatase 2A, PP2A) (see Table 8 below).
Many of the reaction rate parameters are unknown in the cell system we studied and therefore had to be estimated (see Table 10 below). To avoid biasing the starting point, all parameters were set to default values (Aldridge, B. B. et al. (2006) Nat. Cell. Biol. 8:1195-1203). The number of parameters estimated was limited by performing the estimation in two stages: first the model was calibrated against the experimentally observed ErbB receptor phosphorylation data; second, the parameters sensitive to AKT phosphorylation were optimized against the experimental data. Estimated values were only accepted if the parameters were constrained under multiple parameter runs using a genetic algorithm with a population size of 50 and 25 generations (Mathworks, Mass.). […] The normalized sensitivities of each species were integrated over the two hour stimulation, and parameters with normalized, integrated sensitivities greater than an arbitrary threshold of 1000 are listed in Table 11 below. As mentioned above, ErbB4 phosphorylation was not included into the parameter estimation because the cell line studied had barely detectable ErbB4 (see Table 3 below). ErbB4 reactions are parameterized according to ErbB3 reactions.

pErbB1 in NCI-ADRr cells = test: ErbB1 phosphorylation dose response curves for ErbB ligands (ELISA); format: cell-based, human
Description: as §1, §2

pAKT in NCI-ADRr cells = test: AKT phosphorylation dose response curves for ErbB ligands (ELISA); format: cell-based, human
Description: as §1, §2

pErbB2 in NCI-ADRr cells = test: ErbB2 phosphorylation dose response curves for ErbB ligands (ELISA); format: cell-based, human
Description: as §1, §2

[1] = system: IGROV1 xenograft tumor model; test: Xenograft study with Ab #6 (predicted set), IGROV1; format: in vivo, mouse
Description: (§3) In the xenograft tumor models, mice (nu/nu mice: 3-4 week old female mice, T-cell deficient; outbred; Albino background; from Charles River Labs, Wilmington, Mass.) are implanted in the right flank with 3.5×10^6-3×10^8 cells/mouse (depending on cell line) in 200 μl via subcutaneous injection. Mice are monitored for initial tumor growth. Tumor cells are allowed to grow for several days until the tumor volume is approximately 200 mm^3. The tumor volume is calculated as V=(π/6 (L×W^2). The mice are treated with the Ab #6 antibody at a dosage of 600 μg/injection every 3 days (qd3). Control mice are treated with phosphate buffered saline (PBS).
(§4) To test these model predictions, three additional in vivo xenograft studies were performed. The IGROV1, OVCAR8 and SKOV3 cell lines were used in xenograft studies conducted as described in Example 1, wherein mice were treated with 600 μg of Ab #6 every 3 days or with PBS as a control. The xenograft responses, as determined by changes in tumor volume (in mm^3) over time, are summarized in the graphs of FIGS. 9A-9C. Again, the Growth Rate Reduction (GRR) value for each cell line was calculated using the following formula:
(§5) Growth Rate Reduction=1−(Ab #6 Growth Rate)/(PBS Growth Rate)

[2] = system: DU145 xenograft tumor model; test: Xenograft efficacy study with Ab #6, DU145 model; format: in vivo, mouse
Excerpt: (§6) In this example, four xenograft tumor models were used to identify tumor cell lines that responded to treatment with the anti-ErbB3 antibody Ab #6. The four xenograft tumor models studied represent different indications: MALME3M (melanoma cancer line; ATCC No. HTB-64), ADRr (ovarian cancer cell line; NCI-60, cosmic sample ID No. 905987), ACHN (renal cancer cell line; ATCC No. CRL-1611) and DU145 (prostate cancer cell line; ATCC No. HTB-81).
as §3
(§7) Tumor volume is measured for 60-80 days.
(§8) As a measure of responsiveness of the tumor to Ab #6, the exponential growth rate is determined, which described the experimental data best. The following formula is used to describe the exponential growth. […]

[3] = system: SKOV3 xenograft tumor model; test: Xenograft study with Ab #6 (predicted set), SKOV3; format: in vivo, mouse
Description: as §3, §4, §5

[4] = system: ACHN xenograft tumor model; test: Xenograft efficacy study with Ab #6, ACHN model; format: in vivo, mouse
Excerpt: as §6, §3, §7, §8

ErbB3 = ErbB3 (Homo sapiens, UniProt P21860); test: Ab #6 rate constants measured by Kinexa (inhibitor parameter values); format: binding
[5] = system: ADRr xenograft tumor model; test: Xenograft efficacy study with Ab #6, ADRr model; format: in vivo, mouse
Excerpt: as §6, §3, §7, §8

[6] = system: MALME3M xenograft tumor model; test: Xenograft efficacy study with Ab #6, MALME3M model; format: in vivo, mouse
Excerpt: as §6, §3, §7, §8

[7] = system: OVCAR8 xenograft tumor model; test: Xenograft study with Ab #6 (predicted set), OVCAR8; format: in vivo, mouse
Description: as §3, §4, §5

[8] = 600 μg of Ab #6 every 3 days vs PBS
[9] = Ab #6 600 μg/injection every 3 days vs PBS
[10] = Ab #6 600 μg/injection every 3 days vs PBS, negative GRR set to zero

EC50 (pErbB3 in NCI-ADRr cells): 9.9 nM
forward binding rate (ErbB3 (E3); estimated using known Kds and initial dose response curves): ~100000 M⁻¹ s⁻¹
kf2: HRG binding to E3:E2 dimers (ErbB3 (E3); model parameter): 5.00 × 10^−11 molecules−1 sec−1
kr1: HRG dissociation from E3 (ErbB3 (E3); model parameter): 0.001 s⁻¹
kf127: HRG binding in the endosome (ErbB3 (E3); model parameter, endosome): 3.8 molecules−1 sec−1
kf1: HRG binding to E3 or E4 (ErbB3 (E3); model parameter, unit conversion from 1e5 M−1s−1/(Vmedia*Av/Num_cells)): 5.00 × 10^−11 molecules−1 sec−1
EC50 (pAKT in NCI-ADRr cells): 1.9 nM
EC50 (pErbB2 in NCI-ADRr cells): 7 nM
Molecule: HRG1-β: ErbB ligand heregulin, binds to ErbB3 and ErbB4
pErbB3 % stimulation at 5 min relative to maximum (pErbB3 in NCI-ADRr cells): 100.0%
kr2: HRG dissociation from E3:E2 dimers (ErbB3 (E3); model parameter): 0.001 s⁻¹
pErbB1 % stimulation at 5 min relative to maximum (pErbB1 in NCI-ADRr cells): 0.0%
pAKT % stimulation at 5 min relative to maximum (pAKT in NCI-ADRr cells): 100.0%
pErbB2 % stimulation at 5 min relative to maximum (pErbB2 in NCI-ADRr cells): 43.0%

EC50 (pErbB1 in NCI-ADRr cells): 30 nM
Molecule: TGFα: ErbB ligand, transforming growth factor alpha

B1: Epigen: ErbB ligand epigen (protein, UniProt Q6UW88 23-154, looked up)
Epigen: AAVTVTPPITAQQGNWTVNKTEADNIEGPIALKFSHLCLEDHNSYCINGACAFHHELEKAICRCFTGYTGERCEHLTLTSYAVDSYEKYIAIGIGVGLLLSGFLVIFYCYIRKRCLKLKSPYNVCSGERRPL
pErbB3 % stimulation at 5 min relative to maximum (pErbB3 in NCI-ADRr cells): 3.0%
pErbB1 % stimulation at 5 min relative to maximum (pErbB1 in NCI-ADRr cells): 12.0%
pAKT % stimulation at 5 min relative to maximum (pAKT in NCI-ADRr cells): 11.0%
pErbB2 % stimulation at 5 min relative to maximum (pErbB2 in NCI-ADRr cells): 25.0%

kf Ab #6 _2: Ab #6 inhibitor binding to a second ErbB3 (ErbB3; avidity due to volume reduction (Vmedia/Numcells)/Vshell): 4.96E−05 molecules^−1 sec^−1
kf Ab #6 _1: Ab #6 inhibitor binding to ErbB3 (ErbB3; unit conversion of on-rate/(Vmedia*Av/Num_cells), Num_cells = 30,000 per well): 7.15E−11 molecules^−1 sec^−1
B2: Ab #6: anti-ErbB3 antibody described in WO 2008/100624, VH and VL sequences of SEQ ID NOs: 1 and 2 (antibody, V domains shown)
VH: EVQLLESGGGLVQPGGSLRLSCAASGFTFSHYVMAWVRQAPGKGLEWVSSISSSGGWTLYADSVKGRFTISRDNSKNTLYLQMNSLRAEDTAVYYCTRGLKMATIFDYWGQGTLVTVSS
VL: QSALTQPASVSGSPGQSITISCTGTSSDVGSYNVVSWYQQHPGKAPKLIIYEVSQRPSGVSNRFSGSKSGNTASLTISGLQTEDEADYYCCSYAGSSIFVIFGGGTKVTVL
experimentally observed responsiveness based on GRR value [1]: non-responder
GRR [%] (Tumor Growth Rate Reduction) [1, 8]: 6.3%
GRR [%] (Tumor Growth Rate Reduction) [2, 9]: 72.6%
effect of antibody treatment on tumor growth ([2]; compared to PBS control): inhibited tumor growth
experimentally observed responsiveness based on GRR value [3]: responders
GRR [%] (Tumor Growth Rate Reduction) [3, 8]: 19.6%
GRR [%] (Tumor Growth Rate Reduction) [4, 9]: 28.0%
effect of antibody treatment on tumor growth ([4]; compared to PBS control): inhibited tumor growth
Ab #6 on-rate for binding to ErbB3 before unit conversion (ErbB3): calculated as 1.43e5 M^−1s^−1/(Vmedia*Av/Num_cells).
GRR [%] (Tumor Growth Rate Reduction) [5, 10]: 0%
effect of antibody treatment on tumor growth ([5]; compared to PBS control): did not inhibit tumor growth
GRR [%] (Tumor Growth Rate Reduction) [6, 10]: 0%
effect of antibody treatment on tumor growth ([6]; compared to PBS control): did not inhibit tumor growth
experimentally observed responsiveness based on GRR value [7]: responders
GRR [%] (Tumor Growth Rate Reduction) [7, 8]: 91.4%
